Laboratory results as given in article PMC2064240 (The Journal of Cell Biology, 2006).

Target: T1, GST-SV343-571 (bovine, UniProt O46385-2 343-571)
T1 sequence (looked up): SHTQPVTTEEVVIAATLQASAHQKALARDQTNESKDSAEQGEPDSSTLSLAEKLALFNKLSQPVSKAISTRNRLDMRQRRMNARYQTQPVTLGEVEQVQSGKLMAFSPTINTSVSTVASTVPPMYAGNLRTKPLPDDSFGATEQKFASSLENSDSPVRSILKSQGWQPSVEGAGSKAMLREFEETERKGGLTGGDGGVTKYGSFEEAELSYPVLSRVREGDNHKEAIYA
Test: pull-down

binding result: binds
B1: 6×His-tagged TRIP6 LIM domains (aa 265-476) (domain or fragment, human (HeLa cell cDNA library), UniProt Q15654-1 265-476, looked up)
chain: HDMNHPPSGEYFGQCGGCGEDVVGDGAGVVALDRVFHVGCFVCSTCRAQLRGQHFYAVERRAYCEGCYVATLEKCATCSQPILDRILRAMGKAYHPGCFTCVVCHRGLDGIPFTVDATSQIHCIEDFHRKFAPRCSVCGGAIMPEPGQEETVRIVALDRSFHIGCYKCEECGLLLSSEGECQGCYPLDGHILCKACSAWRIQELSATVTTDC
